Paper PMC9576799, “Discovery of small molecule inhibitors that effectively disrupt IQGAP1-Cdc42 interaction in breast cancer cells” (Scientific Reports, 2022)

Columns and labels:
[1] = molecular target: C-terminal half of IQGAP1 (amino acids 864–1657); design: method as in PMID 17984089; settings: scintillation proximity assay; read-out: equilibrium dissociation constant (Kd) of Cdc42-Q61L binding to IQGAP1 fragment; cited from earlier work
GST-IQGAP1-C = molecular target: T1, GST-IQGAP1-C (Homo sapiens, UniProt P46940); assay: GST pull-down assay and Western blotting; format: binding; settings: 2 h at 4 °C, Western blot with anti-Cdc42
T1 construct: the C-terminal half of IQGAP1 (comprising amino acids 864–1657) containing a GST-tag; made in house; host or cells: Escherichia coli BL-21
T1 sequence (P46940 864-1657): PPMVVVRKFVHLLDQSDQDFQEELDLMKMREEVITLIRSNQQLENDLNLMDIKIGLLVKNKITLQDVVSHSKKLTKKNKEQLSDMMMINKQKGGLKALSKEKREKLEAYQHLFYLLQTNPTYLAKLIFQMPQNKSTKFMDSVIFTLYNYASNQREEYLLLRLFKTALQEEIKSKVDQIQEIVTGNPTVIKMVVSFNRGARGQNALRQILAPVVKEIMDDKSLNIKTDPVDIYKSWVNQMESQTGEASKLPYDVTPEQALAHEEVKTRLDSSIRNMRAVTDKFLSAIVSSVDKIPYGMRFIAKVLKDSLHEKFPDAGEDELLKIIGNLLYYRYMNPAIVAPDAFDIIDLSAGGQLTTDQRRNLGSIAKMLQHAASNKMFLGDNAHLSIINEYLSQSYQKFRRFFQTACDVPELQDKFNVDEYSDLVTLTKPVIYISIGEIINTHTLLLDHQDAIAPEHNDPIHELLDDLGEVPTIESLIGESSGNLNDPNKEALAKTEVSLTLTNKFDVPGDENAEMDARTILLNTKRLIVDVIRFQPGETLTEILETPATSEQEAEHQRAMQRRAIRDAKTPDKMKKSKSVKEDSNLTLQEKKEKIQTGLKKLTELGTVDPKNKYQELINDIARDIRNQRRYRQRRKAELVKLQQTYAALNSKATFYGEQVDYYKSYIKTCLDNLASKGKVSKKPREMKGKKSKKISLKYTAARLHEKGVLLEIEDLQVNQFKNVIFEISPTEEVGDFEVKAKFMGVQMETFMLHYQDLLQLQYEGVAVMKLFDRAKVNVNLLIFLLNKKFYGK
Description: (a) Schematic representation of IQGAP1 protein. The C-terminal half of IQGAP1 (amino acids 864–1657) was used in the HTRF assay. (b) GST pull-down assay. GST-IQGAP1-C was incubated with His-tagged Cdc42-N17 or Cdc42-Q61L for 2 h at 4 °C. GST alone was incubated with Cdc42-Q61L as the negative control. Complexes were isolated using glutathione-Sepharose and resolved by SDS-PAGE. The gel was cut at 70 kDa. The upper part of the gel was stained with Coomassie blue. The lower portion of the gel was transferred to PVDF membrane and probed with anti-Cdc42 antibodies. (c) Scheme of the HTRF assay in 384–well format showing fluorescent labeled GST-IQGAP1-C (donor Europium cryptate, K) and His-Cdc42-Q61L (acceptor XL665). (d) Time resolved fluorescence was detected at 615 and 665 nm on the Biotek Synergy using recombinant proteins. The Y-axis represents the ratio of acceptor to donor emission wavelength multiplied by 10,000. The means and standard errors of two replicates are shown. The green bar (Buffer) indicates samples without His-Cdc42. […] No single label is printed for the pair, so the substance label joins the two printed names.

binding to IQGAP1 in GST pulldown (GST-IQGAP1-C)	Substance	Kd [1] [µM]
binds to the C-terminal region of IQGAP1	Cdc42-Q61L: constitutively active Cdc42 mutant construct that binds IQGAP1 with high affinity	0.024 ± 0.004
no detectable binding	Cdc42-N17: dominant negative Cdc42 mutant, negative control	–
